Values quoted from earlier work in patent publication US20030232389A1, “Urokinase peptide structure mimetics” (priority 2000, published 2003).
Positions of bridges follow the written chain, without caps; N, C: chain ends. Non-standard residues stand in square brackets, D forms with d. No end group written: not given here.

Target: uPAR (uPA receptor) (Homo sapiens, UniProt Q03405)
Settings: cyclic disulfide peptide mimicking loop B of the uPA growth factor domain; value from German patent application 199 33 701.2

Sequence of uPAR (uPA receptor) (Q03405 23-305): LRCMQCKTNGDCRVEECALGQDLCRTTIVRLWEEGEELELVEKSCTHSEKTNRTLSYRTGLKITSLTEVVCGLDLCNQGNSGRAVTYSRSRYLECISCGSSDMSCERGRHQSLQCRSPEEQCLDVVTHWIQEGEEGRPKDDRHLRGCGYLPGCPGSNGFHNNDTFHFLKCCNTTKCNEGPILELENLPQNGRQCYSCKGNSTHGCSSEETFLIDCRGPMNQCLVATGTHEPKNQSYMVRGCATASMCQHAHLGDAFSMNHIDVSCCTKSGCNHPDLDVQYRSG

IC50: 78 nM
Substance: cyclo[1,9] D-Cys-Asn-Lys-Tyr-Phe-Ser-Asn-Ile-Cys-Trp ([dC]NKYFSNICW; disulfide 1-9) [cyclo[21,29][D-Cys21Cys29]-uPA21-30]
